Values of other authors, collected in publication PMC9590617.

Experiments:
[1] = biological target: NPFFR1 (Homo sapiens) (UniProt Q9GZQ6)
[2] = biological target: NPFFR2 (Homo sapiens) (UniProt Q9Y5X5)
Sequence of UniProt Q9Y5X5 (Q9Y5X5 whole entry): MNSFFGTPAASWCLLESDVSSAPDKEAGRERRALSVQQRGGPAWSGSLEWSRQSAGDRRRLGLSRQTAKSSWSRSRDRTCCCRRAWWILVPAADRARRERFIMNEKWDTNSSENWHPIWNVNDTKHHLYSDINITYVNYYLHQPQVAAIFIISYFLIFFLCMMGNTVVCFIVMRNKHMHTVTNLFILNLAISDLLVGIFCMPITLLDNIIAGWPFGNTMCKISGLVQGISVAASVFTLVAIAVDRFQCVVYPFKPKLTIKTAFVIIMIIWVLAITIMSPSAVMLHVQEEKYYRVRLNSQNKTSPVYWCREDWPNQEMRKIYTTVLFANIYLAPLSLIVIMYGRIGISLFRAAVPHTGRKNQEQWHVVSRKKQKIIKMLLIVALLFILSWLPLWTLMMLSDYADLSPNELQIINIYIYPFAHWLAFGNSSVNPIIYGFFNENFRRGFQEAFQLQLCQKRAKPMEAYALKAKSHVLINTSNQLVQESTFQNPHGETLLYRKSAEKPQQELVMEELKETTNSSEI

Sequence of UniProt Q9GZQ6 (Q9GZQ6 whole entry): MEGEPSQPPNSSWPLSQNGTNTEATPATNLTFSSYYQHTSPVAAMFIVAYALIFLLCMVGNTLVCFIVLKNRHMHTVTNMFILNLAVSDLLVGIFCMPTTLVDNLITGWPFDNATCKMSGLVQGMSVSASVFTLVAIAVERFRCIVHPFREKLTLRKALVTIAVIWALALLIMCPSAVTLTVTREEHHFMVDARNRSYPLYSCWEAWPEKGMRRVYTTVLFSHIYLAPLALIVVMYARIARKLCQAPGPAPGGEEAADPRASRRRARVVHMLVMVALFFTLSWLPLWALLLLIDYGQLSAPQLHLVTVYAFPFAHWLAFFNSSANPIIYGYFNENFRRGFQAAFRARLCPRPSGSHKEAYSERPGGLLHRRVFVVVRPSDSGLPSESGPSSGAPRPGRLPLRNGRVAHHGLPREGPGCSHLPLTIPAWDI

Neuropeptide FF (from UniProt O15130)
Kd [1]: 1.13 nM | Kd [2]: 0.37 nM
